Laboratory results: publication PMC8544716

Tests used:
Details in all cases: EMSA: 0.2 uM 5'-labelled RNA (90 C 2 min, slow cool to 37 C), yeast tRNA 0.1 ug/reaction, Hfq hexamer 0-500 nM, structure buffer (Ambion), 10 min at 37 C, then …
Hfq (Escherichia coli) [1] = biological target: Hfq (Escherichia coli) (UniProt P0A6X3); assay: EMSA
Hfq (Escherichia coli) [2] = biological target: Hfq (Escherichia coli) (UniProt P0A6X3); assay: footprinting (lead acetate)
Hfq (Escherichia coli) [3] = assay: EMSA

Chain of Hfq (Escherichia coli) (UniProt P0A6X3) (P0A6X3 whole entry): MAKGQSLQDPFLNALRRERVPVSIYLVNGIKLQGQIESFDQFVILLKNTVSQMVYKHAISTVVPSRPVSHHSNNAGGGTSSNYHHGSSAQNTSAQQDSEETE

Substance	Kd (Hfq (Escherichia coli) [1]) [nM]	binding (Hfq (Escherichia coli) [2])	Kd (Hfq (Escherichia coli) [3]) [nM]
GGAUACGCACAAUAAGGCUAUUGUACGUAUGCAAAUUAAUAAUAAAGGAGAGUAGCAAUGUCAUUCGAAUUACCUGCACUACCAUAUGCUAAAGAUGCUCUGGCACCGCACAUUUCUGCGGAAACCAUCGAGGAUCCCUAGC [sodB130]	156	binds	
GGAUACGCACAAUAAGGCUAUUGUACGUAUGCAGGCCGGCAAUAAAGGAGAGUAGCAAUGUCAUUCGAAUUACCUGCACUACCAUAUGCUAAAGAUGCUCUGGCACCGCACAUUUCUGCGGAAACCAUCGAGGAUCCCUAGC [sodB130MH]	314		
sodB130			156
